According to patent publication US20230390362A1, “USE OF TRIGONAL AGONIST HAVING ACTIVITIES TO ALL OF GLUCAGON, GLP-1, AND GIP RECEPTORS IN TREATMENT OF SEQUELAE FOLLOWING RESPIRATORY INFECTIOUS DISEASES” (HANMI PHARM. CO., LTD., priority 2020, published 2023):
Positions of bridges follow the written chain, without caps; N, C: chain ends. Non-standard residues stand in square brackets, D forms with d. No end group written: not given here. *: point of attachment. Acetyl(2-(4-imidazolyl)) = O=C(Cc1c[nH]cn1)*; Aib = CC(C)(N)C(=O)O

T1: human GIP receptor (human, UniProt P48546 22-466)
T1 sequence (looked up): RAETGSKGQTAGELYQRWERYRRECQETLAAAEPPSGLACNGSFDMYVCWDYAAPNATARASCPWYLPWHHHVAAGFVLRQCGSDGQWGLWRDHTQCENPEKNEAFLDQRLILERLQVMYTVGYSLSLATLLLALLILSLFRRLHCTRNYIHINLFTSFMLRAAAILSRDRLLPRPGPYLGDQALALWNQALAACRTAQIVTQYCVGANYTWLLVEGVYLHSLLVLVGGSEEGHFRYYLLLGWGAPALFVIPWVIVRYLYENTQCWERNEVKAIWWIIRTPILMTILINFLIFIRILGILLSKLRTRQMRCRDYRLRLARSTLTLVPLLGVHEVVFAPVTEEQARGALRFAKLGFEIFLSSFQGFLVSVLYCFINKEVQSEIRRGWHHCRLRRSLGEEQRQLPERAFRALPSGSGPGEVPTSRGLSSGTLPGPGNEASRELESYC

B1: trigonal agonist of SEQ ID NO: 85 (peptide)
peptide: {Acetyl(2-(4-imidazolyl))}-[Aib]QGTFTSDYSIAMDEIHQKDFVNWLLAQC
modifications: bridge 15-19
B2: trigonal agonist of SEQ ID NO: 86 (peptide)
peptide: {Acetyl(2-(4-imidazolyl))}-[Aib]QGTFTSDYSKYLDEKRQKEFVNWLLAQC
modifications: bridge 15-19
B3: trigonal agonist of SEQ ID NO: 87 (peptide)
peptide: {Acetyl(2-(4-imidazolyl))}-[Aib]QGTFTSDYSIAMDEIHQKDFVNWLLNTC
modifications: bridge 15-19
B4: trigonal agonist of SEQ ID NO: 88 (peptide)
peptide: {Acetyl(2-(4-imidazolyl))}-[Aib]QGTFTSDYSKYLDEKRQKEFVQWLLNTKC
modifications: bridge 15-19
B5: trigonal agonist of SEQ ID NO: 89 (peptide)
peptide: {Acetyl(2-(4-imidazolyl))}-[Aib]QGTFTSDYSKYLDEKRQKEFVQWLLDTKC
modifications: bridge 15-19
B6: trigonal agonist of SEQ ID NO: 90 (peptide)
peptide: {Acetyl(2-(4-imidazolyl))}-[Aib]EGTFTSDYSIAMDEIHQKDFVNWLLAQKC
modifications: bridge 15-19
B7: trigonal agonist of SEQ ID NO: 91 (peptide)
peptide: {Acetyl(2-(4-imidazolyl))}-[Aib]EGTFTSDYSIAMDEIHQKDFVDWLLAEKC
modifications: bridge 15-19
B8: trigonal agonist of SEQ ID NO: 92 (peptide)
peptide: {Acetyl(2-(4-imidazolyl))}-[Aib]QGTFTSDYSIAMDEIHQKDFVNWLLAQKC
modifications: bridge 15-19
B9: trigonal agonist of SEQ ID NO: 93 (peptide)
peptide: {Acetyl(2-(4-imidazolyl))}-[Aib]QGTFTSDYSKYLDEKRQKEFVNWLLAQKC
modifications: bridge 15-19
B10: trigonal agonist of SEQ ID NO: 94 (peptide)
peptide: {Acetyl(2-(4-imidazolyl))}-[Aib]QGTFTSDYSIAMDEIHQKDFVNWLLNTKC
modifications: bridge 15-19
B11: trigonal agonist of SEQ ID NO: 10 (peptide)
peptide: H[Aib]QGTFTSDVSKYLDGQAAQEFVAWLLAGGGPSSGAPPPSC
B12: trigonal agonist of SEQ ID NO: 95 (peptide)
peptide: Y[Aib]QGTFTSDYSKYLDEKRAKEFVQWLLCHHPSSGQPPPS
modifications: bridge 16-20
B13: trigonal agonist of SEQ ID NO: 96 (peptide)
peptide: Y[Aib]QGTFTSDYSKYLDEKRAKEFVQWLLDHCPSSGQPPPS
modifications: bridge 16-20

Target: T1, human GIP receptor
Experiment: cell-based or functional assay

Row | Binder | In vitro activity relative to native peptide (%), vs. GIP (cAMP EC50)
1 | B1 | 0.3%
2 | B2 | 0.2%
3 | B3 | < 0.1%
4 | B4 | < 0.1%
5 | B5 | < 0.1%
6 | B6 | < 0.1%
7 | B7 | 0.3%
8 | B8 | 0.4%
9 | B9 | 0.7%
10 | B10 | < 0.1%
11 | B11 | < 0.1%
12 | B12 | < 0.1%
13 | B13 | 5.2%

Target: human GCG receptor (human, UniProt P47871 26-477)
Sequence (P47871 26-477): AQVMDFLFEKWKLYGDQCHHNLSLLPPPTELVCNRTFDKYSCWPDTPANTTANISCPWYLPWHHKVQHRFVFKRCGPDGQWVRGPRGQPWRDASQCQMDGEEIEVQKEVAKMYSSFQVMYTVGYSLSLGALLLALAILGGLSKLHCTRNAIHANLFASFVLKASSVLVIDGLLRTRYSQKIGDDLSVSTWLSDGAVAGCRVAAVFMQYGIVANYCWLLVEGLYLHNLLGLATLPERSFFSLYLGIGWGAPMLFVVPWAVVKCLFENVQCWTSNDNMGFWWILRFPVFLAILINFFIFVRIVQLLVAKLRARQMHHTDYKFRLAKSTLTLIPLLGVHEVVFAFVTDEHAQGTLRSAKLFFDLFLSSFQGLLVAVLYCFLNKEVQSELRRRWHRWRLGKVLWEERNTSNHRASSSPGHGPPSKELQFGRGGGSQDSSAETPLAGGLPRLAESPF
Experiment: cell-based or functional assay

Row | Binder | In vitro activity relative to native peptide (%), vs. Glucagon (cAMP EC50)
14 | B1 | < 0.1%
15 | B2 | 0.4%
16 | B3 | < 0.1%
17 | B4 | 0.3%
18 | B5 | 0.7%
19 | B6 | < 0.1%
20 | B7 | 16.8%
21 | B8 | < 0.1%
22 | B9 | 0.3%
23 | B10 | < 0.1%
24 | B11 | < 0.1%
25 | B12 | 0.4%
26 | B13 | 195%

Target: human GLP-1 receptor (human, UniProt P43220 24-463)
Experiment: cell-based or functional assay

Row | Binder | In vitro activity relative to native peptide (%), vs. GLP-1 (cAMP EC50)
27 | B1 | 4.3%
28 | B2 | 28.4%
29 | B3 | 0.9%
30 | B4 | 9.6%
31 | B5 | 7.1%
32 | B6 | 7.4%
33 | B7 | 31.9%
34 | B8 | 0.8%
35 | B9 | 5.7%
36 | B10 | 0.5%
37 | B11 | 46%
38 | B12 | 2.1%
39 | B13 | 34.4%
